# Assay results reported in paper PMC11558545, “Mechanistic Insights into the Function of 14-3-3 Proteins as Negative Regulators of Brassinosteroid Signaling in Arabidopsis” (Plant and Cell Physiology, 2024).
# Square brackets hold non-standard residues; d marks the D form. Ends that are not written are not given here. pT = C[C@@H](OP(=O)(O)O)[C@H](N)C(=O)O; pS = N[C@@H](COP(=O)(O)O)C(=O)O
# B1: C-terminal truncated At14-3-3-ω^1−237 (domain or fragment, Arabidopsis thaliana, UniProt Q01525 1-237, looked up)
# chain: MASGREEFVYMAKLAEQAERYEEMVEFMEKVSAAVDGDELTVEERNLLSVAYKNVIGARRASWRIISSIEQKEESRGNDDHVTAIREYRSKIETELSGICDGILKLLDSRLIPAAASGDSKVFYLKMKGDYHRYLAEFKTGQERKDAAEHTLAAYKSAQDIANAELAPTHPIRLGLALNFSVFYYEILNSPDRACNLAKQAFDEAIAELDTLGEESYKDSTLIMQLLRDNLTLWTSD
# notes: 14-3-3 omega (GRF2), Arabidopsis thaliana, residues 1-237; also called truncated 14-3-3 ω; not shown: thioredoxin A, N-terminal, cleaved; 8xHis, N-terminal, cleaved; StrepII, N-terminal, cleaved
# B2: Arabidopsis 14-3-3 lambda (At14-3-3-λ^1−248) (natural protein, Arabidopsis thaliana, UniProt P48349 1-248, looked up)
# chain: MAATLGRDQYVYMAKLAEQAERYEEMVQFMEQLVTGATPAEELTVEERNLLSVAYKNVIGSLRAAWRIVSSIEQKEESRKNDEHVSLVKDYRSKVESELSSVCSGILKLLDSHLIPSAGASESKVFYLKMKGDYHRYMAEFKSGDERKTAAEDTMLAYKAAQDIAAADMAPTHPIRLGLALNFSVFYYEILNSSDKACNMAKQAFEEAIAELDTLGEESYKDSTLIMQLLRDNLTLWTSDMQEQMDEA
# notes: 14-3-3 lambda (GRF6), Arabidopsis thaliana, full length, residues 1-248; The ITC text names 14-3-3λ without limits; a truncated 1-240 construct was also cloned; not shown: thioredoxin A, N-terminal, cleaved; 8xHis, N-terminal, cleaved; StrepII, N-terminal, cleaved
# B3: 14-3-3 λ^R136L/Y137F (natural protein, Arabidopsis thaliana, UniProt P48349 1-248, looked up)
# chain: MAATLGRDQYVYMAKLAEQAERYEEMVQFMEQLVTGATPAEELTVEERNLLSVAYKNVIGSLRAAWRIVSSIEQKEESRKNDEHVSLVKDYRSKVESELSSVCSGILKLLDSHLIPSAGASESKVFYLKMKGDYHLFMAEFKSGDERKTAAEDTMLAYKAAQDIAAADMAPTHPIRLGLALNFSVFYYEILNSSDKACNMAKQAFEEAIAELDTLGEESYKDSTLIMQLLRDNLTLWTSDMQEQMDEA
# notes: 14-3-3 lambda (GRF6), Arabidopsis thaliana, with R136L and Y137F; also called 14-3-3λ Arg136→Leu/Tyr137→ Phe double mutant; source: E. coli BL21 (DE3) RIL, purified using the same protocol as the wild type; not shown: thioredoxin A, N-terminal, cleaved; 8xHis, N-terminal, cleaved; StrepII, N-terminal, cleaved
# B4: pBZR1^169−184 peptide (peptide)
# peptide: RISN[pS]CPV[pT]PPVSSPT
# notes: also called extended BZR1 linear motif; source: synthetic peptide (Peptide Specialty Laboratories)
# B5: pBRI1^869−874 peptide (peptide)
# peptide: RKL[pT]FA
# notes: BRI1, Arabidopsis thaliana, residues 869-874, N-lobe of the kinase domain; also called RKLpTFA; source: synthetic peptide (Peptide Specialty Laboratories)
# B6: pBZR1^169−175 peptide (peptide)
# peptide: RISN[pS]AP
# notes: also called RISNpSAP; source: synthetic peptide (Peptide Specialty Laboratories)
# B7: Arabidopsis 14-3-3 omega, full length (At14-3-3-ω^1−259) (natural protein, Arabidopsis thaliana, UniProt Q01525 1-259, looked up)
# chain: MASGREEFVYMAKLAEQAERYEEMVEFMEKVSAAVDGDELTVEERNLLSVAYKNVIGARRASWRIISSIEQKEESRGNDDHVTAIREYRSKIETELSGICDGILKLLDSRLIPAAASGDSKVFYLKMKGDYHRYLAEFKTGQERKDAAEHTLAAYKSAQDIANAELAPTHPIRLGLALNFSVFYYEILNSPDRACNLAKQAFDEAIAELDTLGEESYKDSTLIMQLLRDNLTLWTSDMQDDAADEIKEAAAPKPTEEQQ
# notes: 14-3-3 omega (GRF2), Arabidopsis thaliana, full length, residues 1-259; ITC and SEC-RALS name 14-3-3 ω without limits; not shown: thioredoxin A, N-terminal, cleaved; 8xHis, N-terminal, cleaved; StrepII, N-terminal, cleaved
# B8: pBKI1^265−272 peptide (peptide)
# peptide: RGELF[pS]AP
# notes: also called RGELFpSAP; source: synthetic peptide (Peptide Specialty Laboratories)
# Assays:
# [1] = molecular target: the molecule itself; experiment: crystal structure; co-crystallisation of 14-3-3 with 1-3 mM phosphopeptide; molecular replacement
# [2] = molecular target: the molecule itself; experiment: SEC; analytical, Superdex 200 increase 10/300 GL, 25 mM Hepes pH 7.0, 50 mM KCl; 500 μl of protein at 2.0 mg/ml
# [3] = molecular target: T1, Arabidopsis 14-3-3 isoform kappa (At14-3-3-κ^1−248) (Arabidopsis thaliana, UniProt P48348 1-248); experiment: ITC; Nano ITC, 25°C, 25 mM Hepes pH 7.0, 50 mM KCl; 600 μM peptide or phosphopeptide injected into 50 μM 14-3-3 protein in the cell, 25 injections; conditions: both partners purified
# T1 construct: 14-3-3 kappa (GRF8), Arabidopsis thaliana, full length, residues 1-248; The ITC text names 14-3-3κ without limits; a truncated 1-240 construct was also cloned; not shown: thioredoxin A, N-terminal, cleaved; 8xHis, N-terminal, cleaved; StrepII, N-terminal, cleaved
# T1 sequence (looked up): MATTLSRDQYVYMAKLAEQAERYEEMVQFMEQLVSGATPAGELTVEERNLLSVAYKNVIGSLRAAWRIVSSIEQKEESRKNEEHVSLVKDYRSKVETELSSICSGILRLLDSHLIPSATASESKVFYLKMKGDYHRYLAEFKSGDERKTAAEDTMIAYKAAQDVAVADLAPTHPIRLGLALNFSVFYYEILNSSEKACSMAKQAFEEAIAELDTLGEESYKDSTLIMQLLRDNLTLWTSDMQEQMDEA
# [4] = molecular target: B7; experiment: crystal structure; co-crystallisation of 14-3-3 with 1-3 mM phosphopeptide; molecular replacement; conditions: both partners purified
# [5] = molecular target: T2, At14-3-3 λ^N233A (Arabidopsis thaliana, UniProt P48349 1-248, N233A); experiment: ITC; Nano ITC, 25°C, 25 mM Hepes pH 7.0, 50 mM KCl; 600 μM peptide or phosphopeptide injected into 50 μM 14-3-3 protein in the cell, 25 injections; conditions: both partners purified
# T2 construct: 14-3-3 lambda (GRF6), Arabidopsis thaliana, with N233A; also called 14-3-3λ Asn233→ Ala mutant; source: E. coli BL21 (DE3) RIL, purified using the same protocol as the wild type; not shown: thioredoxin A, N-terminal, cleaved; 8xHis, N-terminal, cleaved; StrepII, N-terminal, cleaved
# T2 sequence (looked up): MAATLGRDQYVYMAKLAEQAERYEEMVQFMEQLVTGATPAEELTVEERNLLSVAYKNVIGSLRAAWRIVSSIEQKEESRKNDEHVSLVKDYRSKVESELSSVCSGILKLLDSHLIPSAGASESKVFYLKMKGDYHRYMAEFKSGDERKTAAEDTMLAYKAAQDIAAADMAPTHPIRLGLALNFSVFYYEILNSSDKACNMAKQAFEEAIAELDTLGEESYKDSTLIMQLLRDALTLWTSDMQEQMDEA
# [6] = molecular target: B2; experiment: as above; conditions: both partners purified
# [7] = molecular target: B1; experiment: crystal structure; co-crystallisation of 14-3-3 with 1-3 mM phosphopeptide; molecular replacement; conditions: both partners purified
# [8] = molecular target: B7; experiment: ITC; Nano ITC, 25°C, 25 mM Hepes pH 7.0, 50 mM KCl; 600 μM peptide or phosphopeptide injected into 50 μM 14-3-3 protein in the cell, 25 injections; conditions: both partners purified
binder,measurement,setting,value
B1,binding result,[1],binds
B2,binding result,[1],binds
B3,stoichiometry N,[2],2
B4,fold reduction of binding against the BZR1^169−175 motif,[3],~10 fold
same,stoichiometry N,[3],~1
same,binding result,[4],binds
B5,fold reduction of interaction by the N233A mutation,[5],~2 fold
B6,fold reduction of interaction by the N233A mutation,[5],~5 fold
same,binding result,[6],binds
same,binding result,[7],binds
B7,binding result,[1],binds
B8,binding result,[5],binds
same,binding result,[8],binds
same,binding result,[6],binds
same,binding result,[7],binds
